The record followed here is patent US20090035322A1 (Regeneron, published 2009).

The target in assay [1] is T1, human CD20 (human, UniProt P11836 1-297).
T1 construct: On human CD20-transfected MG87 cells, or endogenous on Daudi, RL and Raji cells; also called hCD20
T1 sequence: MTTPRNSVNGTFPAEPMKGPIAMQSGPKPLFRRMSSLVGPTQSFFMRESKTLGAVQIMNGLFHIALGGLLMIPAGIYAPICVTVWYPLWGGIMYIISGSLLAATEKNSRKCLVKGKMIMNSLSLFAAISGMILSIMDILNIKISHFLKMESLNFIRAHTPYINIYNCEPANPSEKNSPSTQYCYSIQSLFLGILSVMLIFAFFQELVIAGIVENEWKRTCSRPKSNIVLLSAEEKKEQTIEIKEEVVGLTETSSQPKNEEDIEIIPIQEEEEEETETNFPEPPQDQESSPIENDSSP
Put plainly: flow cytometry, hCD20-transfected MG87 cells. The method, then:
Briefly, parental MG87 and human CD20-transfected MG87 cells were incubated for 30 min at 4° C. with each of the 15 human antibodies and the two control antibodies, followed by incubation with PE-conjugated anti-human IgG antibody. Binding was assessed by flow cytometry. Fluorescence intensities were compared with binding to the parental cell line and control isotype-matched sample.

Assay [2] deals with T1, human CD20. Put plainly: cell-based or functional assay.
The target of assay [3] is T1, human CD20. Put plainly: cell-based or functional assay. The source holds these as a separate data set.
Assay [4] has as its target T1, human CD20. Put plainly: cell-based or functional assay. This is another data set of the same source.
Assay [5] deals with T1, human CD20. Put plainly: cell-based or functional assay. This is another data set of the same source.
The target of assay [6] is T2, mutant human CD20 #3 (A170S, P172S) (human, UniProt P11836 1-297).
T2 construct: Stably expressed on MG87 cells
T2 chain: T1 sequence with A170S, P172S
Put plainly: FACS, mutant-hCD20 MG87 cells; 100%=best antibody. The method, then:
(§1) Briefly, approximately 1×10⁶ cells from each stably transfected cell line expressing a mutant human CD20 were collected and incubated with each anti-human antibody, at 10 μg/ml, on ice for 1 hr, followed by incubation with APC-conjugated goat anti-human IgG (Jackson Immunolabs), at 10 μg/ml, on ice for 45 min. For each antibody, binding to each mutant human CD20 was assessed by flow cytometry.

The target in assay [7] is T3, mutant human CD20 #9 (N163D, N166D) (human, UniProt P11836 1-297).
T3 construct: Stably expressed on MG87 cells
T3 chain: T1 sequence with N163D, N166D
Put plainly: FACS, mutant-hCD20 MG87 cells; 100%=best antibody. The protocol: as §1

For assay [8], the target named is T4, mutant human CD20 #6 (Y77F, N166D) (human, UniProt P11836 1-297).
T4 construct: Stably expressed on MG87 cells
T4 chain: T1 sequence with Y77F, N166D
Put plainly: FACS, mutant-hCD20 MG87 cells; 100%=best antibody. The protocol: as §1

The target in assay [9] is T5, mutant human CD20 #8 (Y77F, N163D, N166D) (human, UniProt P11836 1-297).
T5 construct: Stably expressed on MG87 cells
T5 chain: T1 sequence with Y77F, N163D, N166D
Put plainly: FACS, mutant-hCD20 MG87 cells; 100%=best antibody. The protocol:
as §1

Assay [10] deals with T6, mutant human CD20 #4 (N166D) (human, UniProt P11836 1-297).
T6 construct: Stably expressed on MG87 cells
T6 sequence: T1 sequence with N166D
Put plainly: FACS, mutant-hCD20 MG87 cells; 100%=best antibody. The protocol: as §1

For assay [11], the target named is T7, mutant human CD20 #10 (A157V) (human, UniProt P11836 1-297).
T7 construct: Stably expressed on MG87 cells
T7 sequence: T1 sequence with A157V
Put plainly: FACS, mutant-hCD20 MG87 cells; 100%=best antibody. The method, then: as §1

Assay [12] addresses T8, mutant human CD20 #2 (N163D) (human, UniProt P11836 1-297).
T8 construct: Stably expressed on MG87 cells
T8 sequence: T1 sequence with N163D
Put plainly: FACS, mutant-hCD20 MG87 cells; 100%=best antibody. The protocol:
as §1

The target of assay [13] is T9, mutant human CD20 #1 (Y77F) (human, UniProt P11836 1-297).
T9 construct: Human residues replaced by mouse residues; stably expressed on MG87 cells
T9 sequence: T1 sequence with Y77F
Put plainly: FACS, mutant-hCD20 MG87 cells; 100%=best antibody. The method, then:
as §1

Assay [14] has as its target T10, mutant human CD20 #7 (Y77F, N163D) (human, UniProt P11836 1-297).
T10 construct: Stably expressed on MG87 cells
T10 chain: T1 sequence with Y77F, N163D
Put plainly: FACS, mutant-hCD20 MG87 cells; 100%=best antibody. The protocol:
as §1

Residue numbers refer to the chain shown, from its start. Where two headings read alike, the source gives them in different places.

B1: rituximab (RITUXAN, IDEC Pharmaceuticals Corp.) (antibody, V domains shown)
VH: QVQLQQPGAELVKPGASVKMSCKASGYTFTSYNMHWVKQTPGRGLEWIGAIYPGNGDTSYNQKFKGKATLTADKSSSTAYMQLSSLTSEDSAVYYCARSTYYGGDWYFNVWGAGTTVTVSA
VL: QIVLSQSPAILSASPGEKVTMTCRASSSVSYIHWFQQKPGSSPKPWIYATSNLASGVPVRFSGSGSGTSYSLTISRVEAEDAATYYCQQWTSNPPTFGGGTKLEIK
As for B1, in the assay with human CD20 [1], the “Total Mean Fluorescent Intensity” value turned out to be 2960. Further, in the assay with human CD20 [2], the “CDC, Daudi EC50” value is 0.84 nM and the “CDC, RL EC50” value is greater than 50 nM. In the assay with human CD20 [3], the “% Cytotoxicity (CDC, Daudi), 0 hour” value is 98.3%; the “% Cytotoxicity (CDC, Daudi), 1 hour” value was 81.1%; the “% Cytotoxicity (CDC, Daudi), 6 hour” value came out at 20.5%. Moreover, in the assay with human CD20 [4], the “% Cytotoxicity (CDC, Daudi), 0 hour” value amounted to 98.5%; the “% Cytotoxicity (CDC, Daudi), 1 hour” value was found to be 86.9%; the “% Cytotoxicity (CDC, Daudi), 6 hour” value amounted to 16%. Besides, in the assay with human CD20 [5], the “% Cytotoxicity (CDC, Daudi), 0 hour” value amounted to 91.9%; the “% Cytotoxicity (CDC, Daudi), 1 hour” value worked out at 65.3%; the “% Cytotoxicity (CDC, Daudi), 6 hour” value came to 52.1%.

B2: 2F2 (antibody, V domains shown)
VH: EVQLVESGGGLVQPGRSLRLSCAASGFTFNDYAMHWVRQAPGKGLEWVSTISWNSGSIGYADSVKGRFTISRDNAKKSLYLQMNSLRAEDTALYYCAKDIQYGNYYYGMDVWGQGTTVTVSS
VL: EIVLTQSPATLSLSPGERATLSCRASQSVSSYLAWYQQKPGQAPRLLIYDASNRATGIPARFSGSGSGTDFTLTISSLEPEDFAVYYCQQRSNWPITFGQGTRLEIK
Take B2: the “Percent of Binding to Mutant Human CD20” value in assay [6] is 70%; in assay [7], 4%; in [8], 1%; in assay [9], 0%; in assay [10], 51%; in [11], 79%. The “Percent of Binding to Mutant Human CD20” value in [12] was 30%; in [13] it was 60%; in assay [14], 1%.
